The text below walks through data of patent US20100254978A1 (UCB, published 2010).

In experiment [1] the target is T1, Rhesus OX40 on activated rhesus CD4+ T cells (rhesus, UniProt P16003 26-458). Briefly: flow cytometry saturation binding on activated rhesus CD4+ T cells; n = 1. A general note: A flow cytometer gives signals particle by particle.
Experiment [2] concerns the target T1, Rhesus OX40 on activated rhesus CD4+ T …. The experiment in a line: flow cytometry equilibrium binding on activated CD4+ T cells, against human cells as reference.
Experiment [3] addresses Cynomolgus OX40 on activated cynomolgus CD4+ T cells (cynomolgus) (UniProt P79185). The experiment in a line: flow cytometry saturation binding on activated cynomolgus CD4+ T cells; n = 3.
Experiment [4] addresses T2, Human OX40 expressed on the surface of activated human CD4+OX40+ T cells (human, UniProt P43489 29-277).
T2 construct: whole, on cells; Also used as the target for the functional assays on human PBMC (endogenous OX40); also called cell surface OX40; cell-surface expressed OX40
T2 sequence (looked up): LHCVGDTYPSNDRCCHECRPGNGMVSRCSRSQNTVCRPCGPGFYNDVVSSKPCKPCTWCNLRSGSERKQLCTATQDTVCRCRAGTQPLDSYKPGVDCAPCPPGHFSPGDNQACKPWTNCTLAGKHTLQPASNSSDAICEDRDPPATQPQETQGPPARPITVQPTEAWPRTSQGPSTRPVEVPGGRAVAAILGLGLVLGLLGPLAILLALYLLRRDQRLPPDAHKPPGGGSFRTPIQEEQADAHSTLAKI
Briefly: flow cytometry saturation binding on activated human CD4+ T cells; mean, n = 3. The procedure: (§1) PBMC were isolated by separation on a Ficoll gradient and activated with 1 μg/mL PHA-L for 3 days at 37° C., 5% CO₂, 100% humidity. CD4⁺ T cells were isolated by negative selection using magnetic beads (CD4⁺ T cell Isolation Kit II for Human; Miltenyi Biotec). […] The cells were washed prior to analysis by flow cytometry using a FACScalibur (Becton Dickinson). Two titration curves were produced, one with A26Fab′-PEG and a second with gA33 Fab′-PEG as a non-specific binding control. Linear regression analysis was used to subtract non-specific binding and the specific binding curve thus generated was analysed by non-linear regression (Graphpad Prism®) to determine KD.

Experiment [5] deals with T3, Human OX40 extracellular (185 aa) domain fused to the murine IgG2a Fc (232 aa) (Ancell No 513-020) (human; murine, UniProt P43489 29-214).
T3 construct: extracellular domain; Bought reagent; also called recombinant OX40; human extracellular domain OX40; not shown: murine IgG2a Fc, 232 aa
T3 sequence (looked up): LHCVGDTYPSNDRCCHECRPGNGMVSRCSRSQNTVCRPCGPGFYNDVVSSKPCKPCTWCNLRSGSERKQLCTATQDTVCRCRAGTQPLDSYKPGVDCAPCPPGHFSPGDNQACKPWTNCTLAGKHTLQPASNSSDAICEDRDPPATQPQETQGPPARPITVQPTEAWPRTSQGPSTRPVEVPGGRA
Briefly: BIAcore 3000 SPR; antibody captured, human OX40-mFc as analyte; average of 4 determinations. The procedure: (§2) BIA (Biamolecular Interaction Analysis) was performed using a BIAcore 3000 (BIAcore AB). Affinipure F(ab′)₂ Fragment goat anti-human IgG, F(ab′)₂ fragment specific (Jackson ImmunoResearch) was immobilised on a CM5 Sensor Chip via amine coupling chemistry to a capture level of ≈4000 response units (RUs). HBS-EP buffer (10 mM HEPES pH 7.4, 0.15 M NaCl, 3 mM EDTA, 0.005% Surfactant P20, BIAcore AB) was used as the running buffer with a flow rate of 10 μl/min. A 10 μl injection of Fab′ at 0.5 μg/mL or Fab′-PEG at 50 μg/mL was used for capture by the immobilised anti-human IgG-F(ab′)₂. Human OX40 was titrated over the captured antibody at various concentrations (25 nM to 0.78 nM) at a flow rate of 30 μL/min. The surface was regenerated by a 10 μL injection of 40 mM HCl, followed by a 5 μL injection of 5 mM NaOH at a flowrate of 10 μL/min.
(§3) Background subtraction binding curves were analysed using the BlAevaluation software (version 3.2) following standard procedures. Kinetic parameters were determined from the fitting algorithm.
A general note: SPR reads the build-up and loss of mass on a sensor chip optically.

The target of experiment [6] is T2, Human OX40 expressed on the surface of …. The experiment in a line: cell-based or functional assay.
Experiment [7] concerns the target Cynomolgus OX40 on activated cynomolgus CD4+ T cells (cynomolgus) (UniProt P79185). The experiment in a line: flow cytometry equilibrium binding on activated CD4+ T cells, against human cells as reference.
Experiment [8] addresses T2, Human OX40 expressed on the surface of …. The experiment in a line: flow cytometry ligand blocking assay on activated human CD4+OX40+ T cells; competitor biotinylated OX40L (CD252 muCD8) at 2 µg/ml. The procedure: The capacity of A26Fab′-PEG to block the interaction between cell-surface expressed OX40 and recombinant OX40L was measured using a flow cytometry-based ligand blocking assay. Briefly, activated human CD4⁺OX40⁺ T cells were pre-incubated with a titration of A26Fab′-PEG. Recombinant OX40L was subsequently added to the cells and allowed to bind in the presence of A26 Fab′-PEG. The proportion of OX40L bound was then detected by flow cytometry using a labelled secondary reagent.
Methods: Inhibition of OX40L binding to human activated CD4⁺OX40⁺ T Cells by A26Fab′-PEG. PBMC were isolated by separation on a Ficoll gradient and activated with 1 μg/mL PHA-L for 3 days at 37° C., 5% CO₂, 100% humidity. 2.5×10⁵ cells were incubated in the presence of antibody (final concentration range 20 μg/mL-0.0003 μg/mL (229 nM-0.0035 nM)) for 10 minutes on ice. OX40L (biotinylated CD252 muCD8, Ancell) was added at a final concentration of 2 μg/ml and incubated for a further 30 minutes on ice. Cells were washed and OX40L binding detected by incubation with PE-labelled streptavadin (Jackson Immunoresearch) prior to analysis by flow cytometry using a FACScalibur (Becton Dickinson). gA33 Fab′-PEG was used as a non-specific control. The inhibition curve was analysed by non-linear regression (Graphpad Prism®) to determine the IC₅₀. The data shown is from one representative donor of two.

For experiment [9], the target named is T3, Human OX40 extracellular (185 aa) …. The experiment in a line: BIAcore 3000 SPR; antibody captured by immobilised anti-human F(ab′)2, human OX40-mFc titrated as analyte. The procedure: as §2, §3
In experiment [10] the target is T2, Human OX40 expressed on the surface of …. Briefly: flow cytometry saturation binding of FITC labelled antibody on activated human CD4+OX40+ T cells; one of 3 donors. The procedure:
Binding of FITC labelled A26Fab′-PEG to activated human CD4⁺OX40⁺ T cells was measured by flow cytometry across a 4-log concentration range.
as §1

Experiment [11] shares this target. The experiment in a line: cell-based or functional assay. The source holds these as a separate data set.
In experiment [12] the target is T3, Human OX40 extracellular (185 aa) …. Briefly: BIAcore 3000 SPR; antibody captured, human OX40-mFc as analyte; average of 5 determinations. The procedure:
as §2, §3

The term Kd denotes the equilibrium constant for the complex coming apart. Low readings indicate tighter binding, high ones weaker binding. By koff is commonly meant a measure of how fast the partners let go of each other. Low readings indicate a long-lived complex, high ones a short-lived complex. As a reminder, the kon is the second-order rate constant of association. The low end stands for slow association, the high end for fast association. In general, IC50 refers to the concentration that gives 50% inhibition. A high value points to weaker potency.

Several values for one entry are separate records, joined by “and”; a condition that tells them apart may be missing. Equal values may be shown once. Some results are limits rather than exact numbers.

T1 sequence (P16003 26-458): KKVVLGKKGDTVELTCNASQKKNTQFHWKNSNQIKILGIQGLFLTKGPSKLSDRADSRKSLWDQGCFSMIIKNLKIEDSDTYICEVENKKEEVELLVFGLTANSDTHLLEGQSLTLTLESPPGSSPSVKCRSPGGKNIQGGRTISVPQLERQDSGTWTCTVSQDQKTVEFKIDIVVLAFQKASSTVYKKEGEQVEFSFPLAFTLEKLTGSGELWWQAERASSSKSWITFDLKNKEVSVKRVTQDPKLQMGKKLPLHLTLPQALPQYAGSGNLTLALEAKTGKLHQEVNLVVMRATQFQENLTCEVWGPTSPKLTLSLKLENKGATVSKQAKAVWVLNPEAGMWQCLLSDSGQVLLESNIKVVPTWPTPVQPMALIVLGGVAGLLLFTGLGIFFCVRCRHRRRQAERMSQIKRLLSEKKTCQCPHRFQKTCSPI

B1: A26Fab′-PEG (PEGylated A26 Fab′ fragment) (Fab, V domains shown)
VH: EVQLVESGGGLVQPGGSLRLSCAASGFTFTNYGIHWIRQAPGKGLEWVASISPSGGLTYYRDSVKGRFTISRDDAKNSPYLQMNSLRAEDTAVYYCATGGEGIFDYWGQGTLVTVSS
VL: DIQMTQSPSSLSASVGDRVTITCRATQSIYNALAWYQQKPGKAPKLLIYNANTLHTGVPSRFSASGSGTDSTLTISSLQPEDFATYYCQQYYDYPLTFGGGTKVEIKR
modifications: Cys 226 (linear numbering of SEQ ID NO:15): lysyl-maleimide group, each amino group of the lysyl residue linked to a methoxypoly(ethyleneglycol) of about 20,000 Da (total PEG about 40,000 Da)
notes: also called A26Fab′-PEGylated
In experiment [1], B1 gave a Kd of 1.2 nM. The “fold drop off in affinity as compared to human” value in [2] is less than 2 fold. The molecule also showed a Kd in experiment [3] of 1.86 nM. The same molecule returned a Kd in [4] of 1.11 nM. In experiment [5], the Kd was 0.0313 nM, the koff was 1.3e-05 s⁻¹ and the kon was determined as 476000 M⁻¹ s⁻¹. In addition, in [6], the “IC50 for inhibition of proliferation, Tetanus Toxoid response, donor 1” value was 0.58 nM and 0.051 µg/mL; the “IC50 for inhibition of proliferation, Tetanus Toxoid response, donor 2” value is 1.11 nM and 0.097 µg/mL. In experiment [7], the fold drop off in affinity as compared to human was less than 2 fold. In addition, in [8], the IC50 turned out to be 4.1 nM. This molecule also displayed a Kd in [9] of 0.0137 to 0.0503 nM. Further, the Kd in [10] is 1.19 nM and 1.07 nM and 1.05 nM. Also, in experiment [11], the “House Dust Mite - Inhibition of IL-13 production (n = 3), Mean IC50 (nM)” value came to 1.23 nM; the “House Dust Mite - Inhibition of IL-13 production (n = 3), Mean IC50 (µg/ml)” value stood at 0.107 µg/mL; the “Mixed Lymphocyte Reaction - Inhibition of Proliferation (n = 10), Mean IC50 (nM)” value was 2.15 nM; the “Mixed Lymphocyte Reaction - Inhibition of Proliferation (n = 10), Mean IC50 (µg/ml)” value worked out at 0.188 µg/mL. Further, in [11], the “Tetanus Toxoid - Inhibition of Proliferation (n = 2), Mean IC50 (nM)” value stood at 0.845 nM and the “Tetanus Toxoid - Inhibition of Proliferation (n = 2), Mean IC50 (µg/ml)” value came to 0.0733 µg/mL.

B2: A26 (humanised CA044-00026, graft gL8gH2) Fab′ fragment, unPEGylated (Fab, V domains shown)
VH: B1 VH
VL: B1 VL
notes: Produced in E. coli; the OmpA signal peptide is cleaved off; also called unPEGylated humanised Fab fragment A26
In [9], B2 displayed a Kd of 0.019 to 0.0454 nM. In addition, in experiment [12], the Kd came out at 0.0296 nM, the koff is 1.29e-05 s⁻¹ and the kon is 486000 M⁻¹ s⁻¹.
